Measured values: patent US20100297136A1 (NOTTINGHAM TRENT UNIVERSITY, published 2010)

Key:
[1] = target: T1, HLA-A2.1 MHC class I on the surface of T2 cells; assay: T2 MHC class I stabilisation, flow cytometry with anti HLA-A2.1 mAb, peptide at 10 ug (printed '10 lg'), n = 3
T1 construct: whole, on cells; MHC class I molecule stabilised on T2 cells by added peptide
Procedure: (§1) 2. CAPABILITY OF T21-DERIVED PEPTIDES TO STABILISE MHC CLASS I ON THE SURFACE OF T2 CELLS. Each of the peptides were then screened in a standard T2 assay to determine their ability to stabilise MHC class I molecules on the surface of T2 cells. In brief, T2 cells were cultured routinely in suspension and when required, resuspended to 4×10⁶ cells/ml. 40 μl of the cell suspension was added to round bottom 96 well plates to give a final cell number of 1.6×10⁵ cells/well. Test peptide was added to the wells in triplicate at concentrations of 100, 10, 1 μg. As a control, T2 cells were also treated with equivalent concentrations of DMSO. Following overnight incubation, cells were harvested into FACS tubes, washed and labelled with anti HLA-A2.1 monoclonal antibody (primary antibody) and FITC conjugated goat IgG F(ab′)₂ anti mouse Ig (secondary antibody). Cells were then analysed using a FACScan spectrofluorometer. (See Table 5 and FIG. 6).
(§2) TABLE 5 Mean T2 binding ratios calculated for the four T21-derived peptides. Mean fluorescence (T2 binding ratio) was calculated by dividing the fluorescence observed for the test peptide by the fluorescence observed for the control (DMSO).

[2] = target: T1, HLA-A2.1 MHC class I on the surface of …; assay: T2 MHC class I stabilisation, flow cytometry with anti HLA-A2.1 mAb, peptide at 1 ug (printed '1 lg'), n = 3
Procedure: as §1, §2

[3] = target: T1, HLA-A2.1 MHC class I on the surface of …; assay: T2 MHC class I stabilisation, flow cytometry with anti HLA-A2.1 mAb, peptide at 100 ug (printed '100 lg'), n = 3
Procedure: as §1, §2

Binder	Mean T2 binding ratio [1]	Mean T2 binding ratio [2]	Mean T2 binding ratio [3]
VIAKFQNKL (Synthetic peptide) [T21:607 peptide]	0.967 ratio to DMSO control	0.951 ratio to DMSO control	0.933 ratio to DMSO control
LIIPSLERL (Synthetic peptide) [T21:656 peptide]	0.928 ratio to DMSO control	0.955 ratio to DMSO control	0.921 ratio to DMSO control

Now from value to binder:

Mean T2 binding ratio [1]	Mean T2 binding ratio [2]	Mean T2 binding ratio [3]	Binder
0.942 ratio to DMSO control	0.918 ratio to DMSO control	0.893 ratio to DMSO control	SLERLVNAI (Synthetic peptide) [T21:660 peptide]
1.11 ratio to DMSO control	0.955 ratio to DMSO control	2.86 ratio to DMSO control	YLIHLLQEL (Synthetic peptide) [T21:765 peptide]
